Measurements published in patent US20240279622A1, “COELENTERAZINE-UTILIZING LUCIFERASES WITH STABLE GLOW-TYPE LIGHT EMISSION AND METHODS OF PRODUCING AND USING THEREOF” (MASARYKOVA UNIVERZITA, priority 2021, published 2024).
Where two headings read alike, the source gives them in different places.

Assays:
[1] = Steady-state kinetic analysis of full-conversion cumulative luminescence curves; format: biochemical
Protocol: Each luminescence trace was measured in 3 repetitions. The concentration of coelenterazine in the final reaction mixture ranged from 0.2 to 7.9 μM while the concentration of luciferase enzymes ranged from 17 to 640 nM.
An updated protocol applying new standards for collecting and fitting steady-state kinetic data was used. Unlike the classical initial velocity analysis, which requires a sophisticated luminometer calibration and quantum yield evaluation, luminescence data were recorded when letting the reaction proceed to completion beyond the initial linear phase. The recorded luminescence traces (rate vs. time) were transformed to reaction progress curves corresponding to cumulative luminescence in time. The transformed kinetic data (product vs. time) were fitted globally with the KinTek Explorer (KinTek Corporation, USA). The software allows for the input of a given kinetic model via a simple text description, and the program then derives the differential equations needed for numerical integration automatically.
Numerical integration of rate equations searching a set of kinetic parameters that produce a minimum χ^2 value was performed using the Bulirsch-Stoer algorithm with adaptive step size, and nonlinear regression to fit data was based on the Levenberg-Marquardt method. To account for fluctuations in experimental data, enzyme or substrate concentrations were slightly adjusted (5%) to derive best fits. Residuals were normalized by sigma values for each data point. The standard error was calculated from the covariance matrix during nonlinear regression. In addition to standard error values, more rigorous analysis of the variation of the kinetic parameters was accomplished by confidence contour analysis by using FitSpace Explorer (KinTek Corporation, USA). In these analyses, the lower and upper limits for each parameter were derived from the confidence contour obtained from setting χ^2 threshold at 0.9. The scaling factor, relating luminescence signal to product concentration, was applied as one of the fitted parameters, well constrained by end-point levels of kinetic traces recorded at particular substrate concentrations. Depletion of the available substrate after the reaction was ensured by repeated injection of the fresh enzyme.
The steady-state model, described by Equation (4), was used to obtain the values of turnover number kcat, Michaelis constant Km, and equilibrium dissociation constant for enzyme-product complex Kp. A conservative estimate for diffusion-limited substrate and product binding k1 and k3 (100 μM^−1·s^−1) was used as a fixed value to mimic the rapid equilibrium assumption. An alternative form of the model, described by Equation (5), was used to obtain estimates of kcat/Km directly by setting k−1=0.

[2] = Thermal unfolding by NanoDSF (tryptophan fluorescence); format: physicochemical; conditions: for Tm / Tonset: 100 mM potassium phosphate buffer pH 7.5, 1° C./min
Protocol: Thermal unfolding was studied using NanoDSF Prometheus (NanoTemper, Germany) by monitoring tryptophan fluorescence over the temperature range of 20 to 90° C., at a heating rate of 1° C./min. The melting temperatures (Tonset and Tm) were evaluated directly by ThermControl v2.0.2.

[3] = Stopped-flow pre-steady-state kinetics of substrate binding (tryptophan fluorescence quenching); conditions: 15° C.; for k+1: pH 7.5, induced-fit binding mechanism
Protocol: The measurement was performed at 15° C. in 100 mM potassium phosphate buffer pH 7.5. Rapid mixing of the components was achieved using the Stopped-Flow SFM 3000 combined with the MOS-500 spectrometer (BioLogic, France). The reaction was initiated by mixing 75 μL of an enzyme with 75 μL of coelenterazine and then monitored by the change of native tryptophan fluorescence (295 nm excitation, 340±13 nm emission). The fluorescence changes were caused by the quenching effect of the coelenterazine substrate upon its binding by an enzyme. The experiment was designed in two different modes, varying either the concentration of the coelenterazine substrate or the concentration of an enzyme. Each kinetic trace was measured in seven consecutive replicates and averaged. The concentration of coelenterazine in the final reaction mixture ranged from 0.9 to 90 μM while the concentration of luciferase enzymes ranged from 0.4 to 94 μM.
The collected double-exponential kinetic traces were fitted globally with the KinTek Explorer (KinTek Corporation, USA). The software allows for the input of a given kinetic model via a simple text description, and the program then derives the differential equations needed for numerical integration automatically. Numerical integration of rate equations searching a set of kinetic parameters that produce a minimum χ^2 value was performed using the Bulirsch-Stoer algorithm with adaptive step size, and nonlinear regression to fit data was based on the Levenberg-Marquardt method. Residuals were normalized by sigma values for each data point. The standard error was calculated from the covariance matrix during nonlinear regression. In addition to standard error values, more rigorous analysis of the variation of the kinetic parameters was accomplished by confidence contour analysis by using FitSpace Explorer (KinTek Corporation, USA). In these analyses, the lower and upper limits for each parameter were derived from the confidence contour obtained from setting the χ^2 threshold at 0.95.
The time-course of the fluorescence quenching upon substrate binding was described with Equation (7) according to the induced-fit binding mechanism and the mechanism was fit directly to the collected kinetic data to obtain the values of elementary rate constants describing the substrate binding process. The quality of the best fits was compared in terms of χ^2 values, “chi-by-eye” assessment, and confidence contour analysis assessing constraint and independency of the determined parameters which confirmed that the obtained values are well-defined by the collected kinetic data.

[4] = Anaerobic equilibrium binding of coelenterazine substrate (fluorescence)
Protocol: The experiments were performed under strictly anaerobic conditions to prevent enzymatic oxidation of interacting ligands. To do so, all the equipment and material, including water, buffer, pipettes, tips, syringes, microplates, and sealing, were made anaerobic by incubating them overnight in the anaerobic glovebox Belle MR2 (Belle Technology, UK). The box was filled with ultra-high purity (UHP) nitrogen atmosphere containing the residual oxygen concentration of 2.3 ppm, as determined by the oxygen meter O2M-3 (Belle Technology, UK). Liquids were aliquoted to the volume of maximally 50 mL and were stirred overnight in the box to release any dissolved oxygen. Two hours prior to the experiment, a closed bottle with an evacuated lyophilized enzyme (oxygen depleted) was put into the glovebox, dissolved with anaerobic water, and incubated to remove any remaining oxygen possibly dissolved in the solution. Similarly, the stock solution of coelenterazine or coelenteramide in ethanol, which was long-term stored in a freezer under the nitrogen atmosphere without oxygen, was put into the glovebox in a closed bottle. A small aliquot of coelenterazine/coelenteramide was transferred into a new empty bottle and kept open for about 20 minutes to remove the remaining dissolved oxygen. After the incubation, a few microliters of an enzyme were mixed with the same amount of coelenterazine, and the mixture was visually inspected for any possible bioluminescence. If no light was observed and the mixture remained yellow even after a minute, all the reagents were ready for anaerobic measurements.
(§1) In the anaerobic glovebox, 200 μL of a differently concentrated enzyme was put into a separate well in a microplate and into each of these wells, 5 μL of coelenterazine or coelenteramide stock solution was added. As a blank, 200 μL of the enzyme was mixed with 5 μL of ethanol for each enzyme concentration. […] The extent of coelenterazine binding at each concentration was determined by measuring fluorescence spectra ranging from 480 to 580 nm upon excitation at 420 nm using the microplate spectrophotometer Varioskan LUX (Thermo Scientific, USA). Binding of coelenteramide was monitored by measuring fluorescence spectra ranging from 350 to 700 nm upon excitation at 330 nm. […]
The obtained fluorescence spectra were visually inspected for characteristic peaks, and the value of the maximal fluorescence intensity Fluomax at these peaks was plotted against the enzyme concentration. The final value of the dissociation constant Kd was determined by fitting the dependence with the hyperbolic Equation (8) using the software Origin 6.1 (OriginLab, USA).

[5] = Anaerobic equilibrium binding of coelenteramide product (fluorescence); conditions: pH 7.5, 30° C., read-out: Dissociation constant Kd, Coelenteramide product
Protocol: The experiments were performed under strictly anaerobic conditions to prevent enzymatic oxidation of interacting ligands. To do so, all the equipment and material, including water, buffer, pipettes, tips, syringes, microplates, and sealing, were made anaerobic by incubating them overnight in the anaerobic glovebox Belle MR2 (Belle Technology, UK). The box was filled with ultra-high purity (UHP) nitrogen atmosphere containing the residual oxygen concentration of 2.3 ppm, as determined by the oxygen meter O2M-3 (Belle Technology, UK). Liquids were aliquoted to the volume of maximally 50 mL and were stirred overnight in the box to release any dissolved oxygen. […] If no light was observed and the mixture remained yellow even after a minute, all the reagents were ready for anaerobic measurements.
as §1, with “added.” for “added. As a blank, 200 μL of the enzyme was mixed with 5 μL of ethanol for each enzyme concentration.”

[6] = pH 7.5
Protocol: Solid coelenterazine was dissolved in ice-cold ethanol and stored under a nitrogen atmosphere in dark glass vials at −20° C. Before each measurement, the concentration and maintained quality of the ethanol stock solutions were verified spectrophotometrically. A buffer solution of coelenterazine was prepared by mixing an appropriate volume of the ethanol stock solution with 100 mM phosphate buffer pH 7.5 immediately before the measurement. Tested luciferase enzyme samples were dissolved in the same 100 mM phosphate buffer pH 7.5. The enzymatic reaction was initiated inside the microplate reader FLUOstar OPTIMA (BMG Labtech, Germany) by the automatic addition of 225 μL buffer solution of coelenterazine into a microplate well containing 25 μL of enzyme solution. The resulting bioluminescence activity traces were collected at 37° C. until the luminescence intensity decreased to less than 0.5% of its maximal measured value. Each luminescence trace was measured in 3 repetitions. The concentration of coelenterazine in the final reaction mixture was 2.2 μM while the concentration of luciferase enzymes was 50 nM. The obtained luminescence kinetic data were fitted to an exponential decay or a logistic model using Origin 6.1 (OriginLab, USA) and the value of half-life t1/2, defined as the time when the initial luminescence signal decreased to 50%, was calculated.

[7] = compared to RLuc; cited from earlier work
[8] = Luminescence specific activity of the ancestral protein; format: biochemical; conditions: 7.9 μM coelenterazine, 37° C., compared to RLuc
Protocol: Both the coelenterazine substrate and the AncHLD-RLuc enzyme were dissolved in 100 mM potassium phosphate buffer pH 7.5 and their resulting concentrations in the reaction mixture were 7.9 μM coelenterazine, 1.5 nM RLuc, and 2.8 μM AncHLD-RLuc. Bioluminescence activity traces were collected at 37° C. over the first 72.5 seconds immediately after injection of the substrate into the enzyme solution. The activity of each enzyme sample was measured in at least three independent experiments. The collected luminescence curves were integrated to obtain a linear increase of cumulative luminescence over time, while the slope gave the final value of activity, represented in RLU·s^−1. For each enzyme, the calculated activity was related to one milligram of the enzyme to get the final value of specific activity in RLU·s^−1·mg^−1.

[9] = from Loening et al. (2006); cited from earlier work

Molecule | kcat ([1]; 100 mM phosphate buffer pH 7.5, 37° C.) [s⁻¹] | Kd ([1]; 100 mM phosphate buffer pH 7.5, 37° C., read-out: Kp (equilibrium dissociation constant for enzyme-product complex)) [µM] | Glow-type effectivity ([1]; kcat/Km divided by Km/Kp) | Tm [2] [°C] | Tonset [2] [°C] | k+2 ([3]; pH 7.5) [s⁻¹] | k−1 ([3]; pH 7.5) [s⁻¹] | k−2 ([3]; pH 7.5) [s⁻¹] | k+1 [3] [M⁻¹ s⁻¹] | Kd ([4]; anaerobic, pH 7.5, 30° C., read-out: Dissociation constant Kd, Coelenterazine substrate) [µM] | Kd ratio substrate/product ([4]; ratio) | Kd [5] [µM] | Half-life (t1/2) [6] [s] | Bioluminescence activity improvement [7] [fold] | Apparent melting temperature higher than RLuc ([2]; difference to RLuc) [°C] | Bioluminescence activity lower than the modern luciferase enzyme [8] | kcat [9] [s⁻¹]
RLuc8: Eight-point mutant of RLuc (A55T, C124A, S130A, K136R, A143M, M185V, M253L, and S287L) (protein, RLuc8) MTSKVYDPEQRKRMITGPQWWARCKQMNVLDSFINYYDSEKHAENAVIFLHGNATSSYLWRHVVPHIEPVARCIIPDLIGMGKSGKSGNGSYRLLDHYKYLTAWFELLNLPKKIIFVGHDWGAALAFHYAYEHQDRIKAIVHMESVVDVIESWDEWPDIEEDIALIKSEEGEKMVLENNFFVETVLPSKIMRKLEPEEFAAYLEPFKEKGEVRRPTLSWPREIPLVKGGKPDVVQIVRNYNAYLRASDDLPKLFIESDPGFFSNAIVEGAKKFPNTEFVKVKGLHFLQEDAPDEMGKYIKSFVERVLKNEQ | 4.7 ± 0.1 | 1.18 ± 0.05 | 2.3 ± 0.2 | 45.0 ± 0.1 | 35.2 ± 0.1 | 26.6 ± 1.1 | 305 ± 5 | 23.4 ± 0.2 | 2.35e+06 ± 40000 | 37 ± 15 | 1.7 ± 0.7 | 22 ± 2 | 6.36 ± 0.06 | 4.3 |  |  | 
AncHLD-RLuc: Reconstructed most-likelihood ancestral protein of Renilla reniformis luciferase and haloalkane dehalogenases (protein, Ancestral protein of Renilla reniformis luciferase) MVSASQRTTSTATGDEWWAKCKQVDVLDSEMSYYDSDPGKHKNTVIFLHGNPTSSYLWRNVIPHVEPLARCLAPDLIGMGKSGKLPNHSYRFVDHYRYLSAWFDSVNLPEKVTIVCHDWGSGLGFHWCNEHRDRVKGIVHMESVVSPLKGWESFPETARDIFQALRSEAGEEMVLKKNFFIERLLPSSIMRKLSEEEMDAYREPFVEPGESRRPTLTWPREIPIKGDGPEDVIEIVKSYNKWLSTSKDIPKLFINADPGFFSNAIKKVTKNWPNQKTVTVKGLHFLQEDSPEEIGEAIADFLNELTK |  |  |  | 64.9 ± 0.1 | 57.4 ± 0.1 |  | 0.118 ± 0.071 |  | 3000 ± 3000 |  |  |  |  |  | 21.2 | > 100,000 fold | 
RLuc: Luciferase isolated from the sea pansy Renilla reniformis (protein, RLuc) MTSKVYDPEQRKRMITGPQWWARCKQMNVLDSFINYYDSEKHAENAVIFLHGNAASSYLWRHVVPHIEPVARCIIPDLIGMGKSGKSGNGSYRLLDHYKYLTAWFELLNLPKKIIFVGHDWGACLAFHYSYEHQDKIKAIVHAESVVDVIESWDEWPDIEEDIALIKSEEGEKMVLENNFFVETMLPSKIMRKLEPEEFAAYLEPFKEKGEVRRPTLSWPREIPLVKGGKPDVVQIVRNYNAYLRASDDLPKMFIESDPGFFSNAIVEGAKKFPNTEFVKVKGLHFSQEDAPDEMGKYIKSFVERVLKNEQ |  |  |  | 43.7 ± 0.1 | 36.3 ± 0.2 |  |  |  |  |  |  |  | 16.4 ± 0.06 |  |  |  | 3.9 ± 0.4
